The data set is described as follows: soluble on expression in E. coli; label from the status in PepcDB or PDB records.
As to “MSLKSVIIGTAGHIDHGKTSLIKALNGFEGDSLKEEQERQITINLSFSNLKLKDKNISFIDVPGHKDLVKTMVSGAFGFSVCLFVVDINEGLKEQSLEHLEILKILDIKNIILVLSKCDLCENIEQKSVEILEELKNLDYPILKVFHTSIKNNQGIEELKNYLYTIENKENDEELIFHYYIDRVFSLKGIGTVVTGSLNEGSITLNEKIICLDTQKELIVKNIQNHDTNLEQIKACNRVALSLNCDYKELKKGYLLSKKGYFKAFKECDALVKAKNLQNSKMIFCVGSRQIECKINILKKLENDEFFVHFSFDKNVFLSFDEAFILLQNNRVIGGGKVLNPLSEPLKKEQKNKFLMFLKNKDFKAAFSFLKDAHKYGFGLLSSYQRFKLSHQKALKLAKELNQVFVDEKNLNVYHLQSLEEIKNFIKFILEKNPYAMLSAHSLALRITWASENFCELGLKEMSNLLDFQNGIYFKKGIDFEKLQEKNNNQMYEILKKQGIKPEAPYNLYDFLELDREGHHHHHH”, the “soluble on expression in E. coli” value is given as “soluble”.
As for “RPFMQKRAQKALPHVSTGADALVGRKVLVTETIDPTTDKGRVAVDGDVWTARSLTGEVIEKGMRVEIVSYESIVLNVVVLGNDKQ”, the “soluble on expression in E. coli” value is given as “not soluble”.
The same measure for “MVYDDANKKWVPAGGSTGFSRVHIYHHTGNNAFRVVGRKIQDHQVVINCAIPKGLKYNQATQTFHQWRDARQVYGLNFGSKEDASVFASAMMHALEVLNSQDAGEKALFTAGCEV”: “soluble”; for “GETSVPPGSALVGPSCVMDDFRDPQRWKECAKQGKMPCYFDLIEENVYLTERKKNKSHRDIKRMQCECTPLSKDERAQGEIACGEDCLNRLLMIECSSRCPNGDYCSNRRFQRKQHADVEVILTEKKGWGLRAAKDLPSNTFVLEYCGEVLDHKEFKARVKEYARNKNIHYYFMALKNDEIIDATQKGNCSRFMNHSCEPNCETQKWTVNGQLRVGFFTTKLVPSGSELTFDYQFQRYGKEAQKCFCGSANCRGYLGGENRVSIRAAGGKMKKERSRK”: “soluble”.
The same measure for “MGSDKIHHHHHHMSARNETGYERVLVPVGDKSDPNMLTELSSILVDPRRGAVRFTHVTTDRSFVGSQENWRTGSDSVAESQHTLREEGIESTGTIRTASSALDGILEEAEEYEADAILIGWTDKDSVSSLVDKLLRKAGCDVIVFSADRDPIDTDSILVPVVVKPDANRLQMLAIMSQRTGASITFTYVTGDEGTDEEGRGLLDQSAERLAEYGVQAETELKSASSAVDALGQLSEDYDVMVIGTSRGWWLRKTLFGRKTDKIAQEAQCSLLMHKWQGEVPPES”: “not soluble”; for “MNAFNLIIIGDEILHGSSQDKHFAFFKSLLESKGLKLNQVQYLPDEPDLLVRQLRRSFSDGMPTFVTGGIGATPDDHTRQAAAAALDLPVVRHSEAAKFIEGITQKRGEPLDSPEHAQRLKMADFPEGAELVPNPFNNIAGFSIREHYFFPGFPVMAHPMAEWVLETYYADRFNQTERGSRSVYVFEQPESRITPLMEHIEQTYPGVRSYSLPSVGWTHSDGTQVKPHIEFGIKAEGEAVNLLDAAWAEVLHSLDGLGAELKNRVN”: “not soluble”; for “NVRVITDENWRELLEGDWMIEFYAPWCPACQNLQPEWESFAEWGEDLEVNIAKVDVTEQPGLSGRFIINALPTIYHCKDGEFRRYQGPRTKKDFINFISDKEWKSIEPVSSWF”: “soluble”.
“MKSQLRKKTLEALSALSNEDILQKTERMYKYLFSLPEWQNAGTIAVTISRGLEIPTRPVIEQAWEEGKQVCIPKCHPDTKKMQFRTYQTDDQLETVYAGLLEPVIEKTKEVNPSQIDLMIVPGVCFDVNGFRVGFGGGYYDRYLSEYEGKTVSLLLECQLFAHVPRLPHDIPVHKLITEDRIISCFSLEHHHHHH”: the “soluble on expression in E. coli” value is listed as “soluble”.
With “AHHHHHHGSGEKRKTRQAEVNIGMVGHVDHGKTTLTKALTGVWTDTHSEELRRGITIKIGFADAEIRRCSNCGRYSTSPICPYCGHETEFIRRVSFIDSPGHEALMTTMLAGASLMDGAILVIAANEPCPRPQTREHLMALQIIGQKNIIIAQNKIELVDKEKALENYRQIKEFIKGTVAENAPIIPISALHGANIDVLVKAIEEFIPTPKRDSNKPPKMLVLRSFDVNKPGTPPEKLVGGVLGGSIVQGKLKVGDEIEIRPGVPYEEHGRIKYEPITTEIVSLQAGGQFVEEAYPGGLVGIGTKLDPYLTKGDLMAGNVVGKPGKLPPVWTDLRLEVHLLERVVGTEQELNVEPIKRKEVLLLNVGTARTMGLVTALGKDEIELKLQIPVCAEPGERVAISRQIGSRWRLIGYGIIKE” the entry was “not soluble”.
